US20210179728A1
Where “and” joins values, the source holds several entries; their conditions need not be identical. Identical values can stand only once.

Legend:
[1] = molecular target: SIRPg on human CD3+ T cells (human) (UniProt Q9P1W8); test: flow cytometry on peripheral human CD3+ T cells; Exp 1 HV2 [B, table B]
[2] = molecular target: SIRPg on human CD3+ T cells (human) (UniProt Q9P1W8); test: flow cytometry on peripheral human CD3+ T cells; Exp 1 HV1 [B, table B]
[3] = molecular target: recombinant hSIRPa (Sino Biologicals, reference 11612-H08H) (human) (UniProt P78324); test: SPR (Biacore); SIRPa-His immobilized on CM5 chip, antibody injected
[4] = molecular target: recombinant hSIRPa (Sino Biologicals, reference 10975-H08H) (human) (UniProt P78324); test: ELISA on immobilized recombinant hSIRPa, anti-mouse Fc detection; given as ED50
[5] = molecular target: SIRPa on human monocytes (human) (UniProt P78324); test: flow cytometry on human monocytes v1/v1, PE anti-human Fc; MFI [B, panel B table]
[6] = molecular target: SIRPa on human monocytes (human) (UniProt P78324); test: flow cytometry on human monocytes v1/v1, PE anti-human Fc; percent of stained monocytes [B, panel A table]
[7] = molecular target: CD47 on human T cells, red blood cells and platelets (human) (UniProt Q08722); test: flow cytometry on peripheral human CD3+ T cells; Exp 1 HV2 [B, table B]
[8] = molecular target: CD47 on human T cells, red blood cells and platelets (human) (UniProt Q08722); test: flow cytometry on peripheral human CD3+ T cells; Exp 1 HV1 [B, table B]

Sequence of SIRPg on human CD3+ T cells (human) (Q9P1W8 29-387): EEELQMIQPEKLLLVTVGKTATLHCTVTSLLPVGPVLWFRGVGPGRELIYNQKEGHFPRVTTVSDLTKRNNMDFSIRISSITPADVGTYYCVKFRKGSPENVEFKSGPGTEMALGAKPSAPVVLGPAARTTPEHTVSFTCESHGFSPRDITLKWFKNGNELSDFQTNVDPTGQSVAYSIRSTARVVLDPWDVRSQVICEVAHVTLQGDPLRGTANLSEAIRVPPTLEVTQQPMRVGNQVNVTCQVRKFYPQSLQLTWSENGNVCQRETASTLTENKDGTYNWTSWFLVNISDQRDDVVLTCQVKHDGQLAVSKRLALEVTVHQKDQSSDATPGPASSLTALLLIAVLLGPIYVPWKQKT

A % of positive T-cells [1] of 1.12% and a % of positive T-cells [2] of 0.45% were found for Ctrl Ab II (antibody) in this work.
A % of positive T-cells [1] of 7.69%, a Kd [3] of 38.7 nM and a koff [3] of 0.000949 s⁻¹ were found for SE5A5 (antibody) in this work. The kon [3] was 24500 M⁻¹ s⁻¹, the % of positive T-cells [2] was 3.72% and the EC50 [4] was 0.16 nM and 0.024 µg/mL.
A % of positive T-cells [1] of 98.4% and a % of positive T-cells [2] of 91.4% were found for LSB2.20 (antibody) in this work.
An EC50 [5] of 0.378 µg/mL and an EC50 [6] of 0.26 µg/mL were found for Kwar23 (antibody) in this work.
A % of positive T-cells [7] of 80.1% and a % of positive T-cells [8] of 72.2% were found for SIRPa-fc (Fc fusion) in this work.
A % of positive T-cells [1] of 0.016% was found for Mouse isotype Ctrl (antibody) in this work.
A Kd [3] of 1670 nM, a koff [3] of 0.01 s⁻¹ and a kon [3] of 5980 M⁻¹ s⁻¹ were found for SE7C2 (antibody) in this work.
